For test [1], the target named is membrane bound human TNF (mTNF), human TNF R77T/S78T variant on HEK293H-mTNF cells (human) (UniProt P01375). The experiment in a line: competition FACS on HEK293H-mTNF cells, competitor Enbrel at EC90 (0.2 nM).
For test [2] the target is unchanged. The experiment in a line: competition FACS on HEK293H-mTNF cells, competitor Enbrel at EC30 (0.02 nM).
Test [3] has as its target biot-hTNFα (human, UniProt P01375 77-233, biotinylated (site not stated)). The experiment in a line: competition ELISA according to Example 5 (assay not given). Here is the method:
The SHIME model consists of five reactors which sequentially simulate the stomach (acid conditions and pepsin digestion), small intestine (digestive processes) and the 3 regions of the large intestine, i.e. the ascending (“A”), transverse (“T”) and descending colon (“D”) (microbial processes). […] All GI fluids were provided by ProDigest (Technologiepark 4, 9052 Zwijnaarde, Belgium). The anti-TNF Nanobodies were tested for a maximum period of 39 hours in the GI-fluids. After the incubation in the GI-fluids, stability of the Nanobodies was determined via functionality testing in a competition ELISA. The Nanobodies were tested at a fixed concentration of 100 μg/ml at 37° C. in 5 different GI fluids in the SHIMS model. At different time-points samples were taken and stored in the −20° C. with or without the addition of protease inhibitors, according to the schedule in Table 5.1. The samples were transferred to coated ELISA plates and subsequently tested in the competition ELISA. […] After blocking, a fixed concentration of 0.3 nM biot-hTNFα together with a titration series of the variants in the different GI fluids was added. Detection was performed with extravidin-HRP.
(In an ELISA, binding on a coated surface is turned into a signal by an enzyme label.)

Consider five molecules from US20170267752A1 (Ablynx, published 2017).

Broadly, the IC50 is the concentration that gives 50% inhibition.

Chain of biot-hTNFα (P01375 77-233 limits assumed): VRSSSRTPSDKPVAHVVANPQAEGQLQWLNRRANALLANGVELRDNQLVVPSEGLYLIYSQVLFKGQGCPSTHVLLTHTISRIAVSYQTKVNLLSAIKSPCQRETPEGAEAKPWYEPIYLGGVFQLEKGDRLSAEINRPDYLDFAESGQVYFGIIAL
Chain of membrane bound human TNF (mTNF), human TNF R77T/S78T variant on HEK293H-mTNF cells (human) (P01375 whole entry, stated change not applied): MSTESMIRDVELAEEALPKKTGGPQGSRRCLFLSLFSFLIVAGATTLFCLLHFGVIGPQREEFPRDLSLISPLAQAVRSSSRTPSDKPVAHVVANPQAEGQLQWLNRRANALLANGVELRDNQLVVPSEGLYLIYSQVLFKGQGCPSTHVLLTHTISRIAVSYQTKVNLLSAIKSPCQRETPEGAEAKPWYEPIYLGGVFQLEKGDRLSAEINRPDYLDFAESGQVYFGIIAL

B1: A016600021 (VHH)
VHH: DVQLVESGGGVVQPGGSLRLSCTASGFTFSTADMGWFRQAPGKGREFVARISGIDGTTYYDEPVKGRFTISRDNSKNTVYLQMNSLRPEDTALYYCRSPRYADQWSAYDYWGQGTLVTVSS
Consider B1, for which the IC50 in test [1] is 0.65 nM; in test [2] it was 0.43 nM; in test [3] it was 0.67 nM.

B2: A016600038 (VHH)
VHH: DVQLVESGGGVVQPGGSLRLSCTASGFTFSTADMGWFRQAPGKGREFVARISGIDGTTYYDEPVKGRFTISRDNAKNTVYLQMNSLRPEDTALYYCRSPRYADQWSAYDYWGQGTLVTVSS
Regarding B2, the IC50 was 0.7 nM in test [1] and 0.43 nM in test [2].

B3: A016600045 (VHH)
VHH: DVQLVESGGGVVQPGGSLRLSCTASGFTFSTADMGWFRQAPGKGREFVARISGIDGTTYYDEPVKGRFTISRDNSKNTVYLQMNSLRPEDTALYYCRSPRYADQWSAHDYWGQGTLVTVSS
As for B3, the values for the IC50 in test [1] and in test [2] were 0.76 nM and 0.54 nM, respectively.

B4: A016600052 (VHH)
VHH: DVQLVESGGGVVQPGGSLRLSCTASGFTFSTADMGWFRQAPGKGREFVCRISGIDGTTYYDEPVKGRFTCSRDNSKNTVYLQMNSLRPEDTALYYCRSPRYADQWSALDYWGQGTLVTVSS
notes: S49C, I69C (intradomain disulfide) and Y100dL
On to B4, for which, in test [3], the IC50 was determined as 3.56 nM and the “fold increase of IC50 compared to 00021” value is 2 to 5 fold.

B5: A016600046 (VHH)
VHH: DVQLVESGGGVVQPGGSLRLSCTASGFTFSTADMGWFRQAPGKGREFVARISGIDGTTYYDEPVKGRFTISRDNSKNTVYLQMNSLRPEDTALYYCRSPRYADQWSALDYWGQGTLVTVSS
notes: Y100dL substitution in CDR3; also called A016600046 100dL; A016600046 Y100dL
Turning to B5, in test [3], the IC50 came out at 1.13 nM and the “fold increase of IC50 compared to 00021” value fell in the range of 2 to 5 fold.
